From PMC3922912, “Structural basis of stereospecific reduction by quinuclidinone reductase” (AMB Express, 2014)
Each block holds one compound with its values, some of them ahead of it.

Legend:
[1] = tested on: O=C1CN2CCC1CC2; test: purified protein; type: biochemical, Rhodotorula mucilaginosa; conditions: 350 μM NADPH, 200 mM potassium phosphate pH 7.0, 37°C, substrate as HCl salt
[2] = target: T1, NADPH-dependent 3-quinuclidinone reductase (RrQR) (Rhodotorula mucilaginosa, UniProt B9ZZZ6); test: X-ray crystal structure, […] Å; type: binding; conditions: crystals grown at 278 K, CHES pH 10.0, PEG8000; one NADPH per protomer
T1 construct: gene rqr; homotetramer; crystal model residues 7-272, residues 1-6 disordered

[3] = target: NADPH-dependent 3-quinuclidinone reductase (RrQR) from Rhodotorula rubra (Rhodotorula rubra); test: crystal structure; RrQR in complex with NADPH; crystals grown at 278 K, sitting-drop vapor diffusion, 100 mM CHES (pH 10.0), 30% PEG8000, 3% sucrose; four protomers in the asymmetric unit; 2.2 Å

Compound: NADPH-dependent 3-quinuclidinone reductase (RrQR) (Rhodotorula mucilaginosa; N173A)
Km [1]: 100 mM
Vmax [1]: 11.6 µmol/min/mg
kcat [1]: 5.62 s⁻¹

Compound: NC(=O)C1=CN([C@@H]2O[C@H](COP(=O)(O)OP(=O)(O)OC[C@H]3O[C@@H](n4cnc5c(N)ncnc54)[C@H](OP(=O)(O)O)[C@@H]3O)[C@@H](O)[C@H]2O)C=CC1 [NADPH]
X-ray crystal structure, 2.2 Å [2]: A clear electron density for NADPH is observed in each protomer

stoichiometry N [3]: 4
Compound: NADPH-dependent 3-quinuclidinone reductase (RrQR) from Rhodotorula rubra (enzyme)
